Values of other authors as cited in paper PMC3950513.

Target: MukB (Escherichia coli) (UniProt P22523)
Chain of UniProt P22523 (P22523 whole entry): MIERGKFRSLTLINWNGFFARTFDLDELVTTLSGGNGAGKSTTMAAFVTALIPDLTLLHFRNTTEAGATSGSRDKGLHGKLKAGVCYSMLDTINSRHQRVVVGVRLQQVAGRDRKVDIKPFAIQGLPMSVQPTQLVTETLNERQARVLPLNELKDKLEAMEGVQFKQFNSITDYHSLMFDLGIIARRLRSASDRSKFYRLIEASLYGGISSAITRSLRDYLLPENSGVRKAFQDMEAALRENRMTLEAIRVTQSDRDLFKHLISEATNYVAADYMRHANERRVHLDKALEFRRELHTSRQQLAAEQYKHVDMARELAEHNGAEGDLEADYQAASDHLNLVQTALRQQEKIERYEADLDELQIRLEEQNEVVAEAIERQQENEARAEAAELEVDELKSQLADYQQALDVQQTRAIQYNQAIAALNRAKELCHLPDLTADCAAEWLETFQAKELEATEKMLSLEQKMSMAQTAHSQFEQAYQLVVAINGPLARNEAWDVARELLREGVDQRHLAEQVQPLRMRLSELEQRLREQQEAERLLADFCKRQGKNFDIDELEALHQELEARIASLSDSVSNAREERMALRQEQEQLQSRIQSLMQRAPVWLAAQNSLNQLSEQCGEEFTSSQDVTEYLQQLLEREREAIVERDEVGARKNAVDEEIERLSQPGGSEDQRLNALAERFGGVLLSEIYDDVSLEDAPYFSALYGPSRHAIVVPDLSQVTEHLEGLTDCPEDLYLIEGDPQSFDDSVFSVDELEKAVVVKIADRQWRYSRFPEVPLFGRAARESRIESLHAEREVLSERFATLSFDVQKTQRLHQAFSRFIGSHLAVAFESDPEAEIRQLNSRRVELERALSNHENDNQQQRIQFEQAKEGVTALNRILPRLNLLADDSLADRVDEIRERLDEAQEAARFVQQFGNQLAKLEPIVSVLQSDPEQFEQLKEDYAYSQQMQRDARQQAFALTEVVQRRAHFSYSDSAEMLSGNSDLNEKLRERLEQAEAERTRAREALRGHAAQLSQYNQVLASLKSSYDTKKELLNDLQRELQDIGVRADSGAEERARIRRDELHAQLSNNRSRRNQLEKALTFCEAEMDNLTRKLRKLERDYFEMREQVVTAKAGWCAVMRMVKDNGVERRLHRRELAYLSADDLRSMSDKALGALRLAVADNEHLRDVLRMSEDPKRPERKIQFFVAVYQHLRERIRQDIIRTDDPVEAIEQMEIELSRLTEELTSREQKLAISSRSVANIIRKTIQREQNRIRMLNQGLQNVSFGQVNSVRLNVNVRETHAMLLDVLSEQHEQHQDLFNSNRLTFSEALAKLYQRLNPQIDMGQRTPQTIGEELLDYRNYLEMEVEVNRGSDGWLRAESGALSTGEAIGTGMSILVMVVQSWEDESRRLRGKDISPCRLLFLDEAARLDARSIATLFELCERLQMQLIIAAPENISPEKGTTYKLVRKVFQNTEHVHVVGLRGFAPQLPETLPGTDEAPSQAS

For ParC (from UniProt P0AFI2), the Kd is listed as 500 nM.
